Source: the MegaScale stability set (Tsuboyama et al. 2023)

B1: EHEE_rd2_0601 (parent)
chain: TYTYKLTDEEASRRAEDEWRNRGYDVRVRNNNGTWEVEVR
B2: EHEE_rd4_0086 (parent)
chain: EIHIRTNGEEQARKVYKMLAKRNYDVKIEQHNGQWVVTAS

Variants of: B1
Assay: folding stability dG (cDNA display proteolysis); higher = more stable
Conditions: PBS, room temperature

Folding stability dG [kcal/mol]: each site, then its substitutions
E36: F 1.75 | L 1.6 | Q 0.744 | S 0.611 | I 1.93 | N 0.173 | A 0.137 | V 1.58 | H 0.826 | R -0.245 | M 1.19 | D 0.292 | C 1.26 | T 1.27 | Y 1.98 | W 1.83
V37: W -0.973 | Y -0.753 | I 1.75 | H 0.241 | L 1.46 | F 0.362 | T -0.63 | A -0.419 | M 0.715
N31: V 1.83 | Q 1.08 | P -0.345 | S 1.1 | T 1.21 | W 1.02 | R 1.34 | Y 1.4
E38: D 0.701 | T 1.71 | W 0.84 | F 1.03 | N 0.56 | G -0.74 | V 1.61 | H 1.02 | M 1.33 | K 0.392 | I 1.77 | L 1.28 | Y 1.03 | R 0.772 | Q 1.2 | A 0.691 | S 1.23
G33: D 0.603 | F -0.159 | V -0.925 | E 0.259 | T -0.078 | R -0.712 | H -0.011 | Q 0.157 | A -0.168 | W -0.61 | K -0.238 | S 0.025 | L -0.48 | M -0.081 | Y -0.464 | N 0.553 | C 0.74
R40: P 0.016 | A 1.03 | I 1.51 | L 1.43 | T 1.54 | K 1.29 | W 1.8 | H 1.1 | Q 1.09 | F 1.65 | S 1.71 | M 1.41 | N 0.95 | D 0.685 | Y 1.59 | E 0.721 | V 1.32 | C 1.7 | G 0.86
N32: M 1.08 | K 0.989 | T 0.049 | Q 1.05 | I -0.191 | H 1.07 | G 1.39 | S 0.857 | L 0.77 | V 0.08 | Y 0.605 | R 0.859 | A 1.12 | F 0.778 | E 1.15 | W -0.071 | D 1.16
W35: F 0.888 | T -0.644 | V -0.844 | Y 0.894 | M -0.533 | C -0.208 | L -0.206 | I 0.328 | P -0.671
T34: Y 1.66 | M 1.58 | K 0.867 | Q 1.48 | W 1.54 | L 1.48 | R 0.865 | G 0.674 | D 0.864 | H 1.2 | F 1.62 | V 2.01 | S 1.28 | A 1.17 | I 2 | N 0.99 | E 1.28
V39: L 0.587 | I 1.41 | H -0.712 | W -0.503 | C 1.46 | R -0.789 | Y -0.431 | A -0.517 | M -0.536 | T -0.975 | F 0.048

Variants of: B2
Assay: as above
Conditions: PBS, room temperature

Folding stability dG [kcal/mol] of substitutions, site by site:
E10: D 1.74 | T 1.78 | I 1.84 | H 1.58 | N 1.72 | F 1.73 | Y 1.81 | S 1.93 | Q 1.81 | W 2.06 | P 1.37 | L 1.98 | M 1.89 | A 2.22 | R 2.17 | G 1.64 | V 1.81 | K 2.15
R5: K 1.75 | L 2.08 | W 2.43 | D 0.471 | G 0.692 | H 1.96 | P 1.19 | S 1.45 | Y 2.52 | A 1.53 | C 2.85 | N 1.18 | I 2.4 | T 1.97 | Q 1.52 | M 1.98 | E 1.34 | V 2.32 | F 2.36
E9: Y 2.52 | R 1.77 | F 2.33 | T 0.873 | W 2.41 | D 0.638 | I 2.26 | A 1.53 | P 1.92 | S 1.14 | Q 1.52 | V 1.76 | K 1.69 | M 1.75 | H 1.55 | N 0.702 | G 0.745 | L 2.44
N7: W 2.08 | T 1.99 | Y 1.99 | D 1.82 | S 1.95 | H 1.73 | R 2.06 | Q 1.85 | F 2.03 | L 1.81 | M 1.69 | G 1.5 | K 1.77 | E 1.69 | P 1.32 | A 1.95 | V 1.66 | I 1.69
E1: T 2.31 | A 2.08 | Q 2.17 | N 1.8 | L 2.37 | K 2.3 | G 1.84 | R 2.29 | V 2.47 | I 2.48 | W 2.55 | H 2.46 | M 2.29 | P 1.91 | F 2.51 | S 2.08 | Y 2.5 | D 1.72
H3: M 2.23 | P 0.072 | R 2.4 | I 2.81 | F 2.2 | D 0.614 | N 1.67 | Y 2.36 | G 0.661 | Q 2.06 | S 2 | K 2.26 | V 2.85 | W 2.12 | A 1.64 | E 2 | T 2.41 | L 2.14
I4: V 1.46 | M 0.855 | S -0.073 | T -0.094 | H 0.442 | K -0.031 | N -0.203 | F 2.16 | E -0.06 | A 0.01 | Q 0.032 | W 1.65 | G -0.953 | D -0.257 | L 1.12 | P -0.436 | Y 2.12 | R 0.105
G8: Q 1.94 | E 2.06 | L 2.05 | P 0.221 | W 2.02 | H 2.21 | A 1.79 | N 2.94 | Y 2.22 | M 1.88 | V 2.06 | F 2.22 | D 2.96 | T 2.86 | I 2.21 | K 2.1 | R 2.17 | S 3.25
T6: P 0.496 | E 0.299 | Q 0.309 | A 1.73 | S 1.16 | M 1.91 | I 2.02 | N 0.438 | L 2.35 | W 0.843 | Y 1.89 | G 0.494 | R 0.963 | F 3.03 | V 2.55 | K 0.706 | H 0.847 | D -0.07
I2: P 0.357 | W 2.36 | E 0.258 | A 0.327 | D 0.01 | S 0.144 | R 0.978 | T 0.864 | K 0.769 | L 1.61 | V 1.42 | F 2.2 | G -0.001 | N 0.024 | Y 1.65 | M 1.38 | Q 0.226 | H 0.983
Q11: F 2.05 | H 1.96 | G 1.02 | M 1.95 | D 1.67 | K 1.4 | L 1.89 | N 1.35 | I 1.84 | E 2.1 | A 1.89 | R 1.51 | P 0.372
